Square brackets hold non-standard residues; d marks the D form. Ends that are not written are not given here. pT = C[C@@H](OP(=O)(O)O)[C@H](N)C(=O)O
B1: H3 (1–12) peptide (peptide)
peptide: ARTKQTARKSTG
notes: histone H3 residues 1-12; also called H3T3 nonphosphopeptide; nonphosphorylated H3 peptide; source: synthetic peptide (Peptide Protein Research Ltd)
B2: H3pT3 (1–12) phosphopeptide (peptide)
peptide: AR[pT]KQTARKSTG
notes: also called pH3T3; H3pT3 phosphopeptide; source: synthetic peptide (Peptide Protein Research Ltd)
B3: borealin^10-109 (domain or fragment, human, UniProt Q53HL2 10-109, looked up)
chain: VAKTNSLRRRKLASFLKDFDREVEIRIKQIESDRQNLLKEVDNLYNIEILRLPKALREMNWLDYFALGGNKQALEEAATADLDITEINKLTAEAIQTPLK
notes: borealin, human, residues 10-109; Subunit in the rows of two; source: E. coli BL21-CodonPlus (DE3)-RIL, co-expressed with survivin (pETDuet-1), purified within the complex
B4: INCENP^1-80 (recombinant) (domain or fragment, human, UniProt Q9NQS7 1-80, looked up)
chain: MGTTAPGPIHLLELCDQKLMEFLCNMDNKDLVWLEEIQEEAERMFTREFSKEPELMPKTPSQKNRRKKRRISYVQDENRD
notes: INCENP, human, residues 1-80; Subunit in the rows of two; also called I^80; source: E. coli BL21-CodonPlus (DE3)-RIL, purified within the complex; not shown: His6, N-terminal, cleaved; GST, N-terminal, cleaved
B5: GFP-MKLP2 Δ636-652 (natural protein, human, UniProt O95235 1-890, looked up)
chain: MSQGILSPPAGLLSDDDVVVSPMFESTAADLGSVVRKNLLSDCSVVSTSLEDKQQVPSEDSMEKVKVYLRVRPLLPSELERQEDQGCVRIENVETLVLQAPKDSFALKSNERGIGQATHRFTFSQIFGPEVGQASFFNLTVKEMVKDVLKGQNWLIYTYGVTNSGKTHTIQGTIKDGGILPRSLALIFNSLQGQLHPTPDLKPLLSNEVIWLDSKQIRQEEMKKLSLLNGGLQEEELSTSLKRSVYIESRIGTSTSFDSGIAGLSSISQCTSSSQLDETSHRWAQPDTAPLPVPANIRFSIWISFFEIYNELLYDLLEPPSQQRKRQTLRLCEDQNGNPYVKDLNWIHVQDAEEAWKLLKVGRKNQSFASTHLNQNSSRSHSIFSIRILHLQGEGDIVPKISELSLCDLAGSERCKDQKSGERLKEAGNINTSLHTLGRCIAALRQNQQNRSKQNLVPFRDSKLTRVFQGFFTGRGRSCMIVNVNPCASTYDETLHVAKFSAIASQLVHAPPMQLGFPSLHSFIKEHSLQVSPSLEKGAKADTGLDDDIENEADISMYGKEELLQVVEAMKTLLLKERQEKLQLEMHLRDEICNEMVEQMQQREQWCSEHLDTQKELLEEMYEEKLNILKESLTSALLQEARQQSVAHQQSGSELALRRSQRLAASASTQQLQEVKAKLQQCKAELNSTTEELHKYQKMLEPPPSAKPFTIDVDKKLEEGQKNIRLLRTELQKLGESLQSAERACCHSTGAGKLRQALTTCDDILIKQDQTLAELQNNMVLVKLDLRKKAACIAEQYHTVLKLQGQVSAKKRLGTNQENQQPNQQPPGKKPFLRNLLPRTPTCQSSTDCSPYARILRSRRSPLLKSGPFGKKY
notes: source: HeLa, transfected, in lysate; not shown: EGFP, N-terminal, kept
B6: MKLP2^557-668 (domain or fragment, human, UniProt O95235 557-668, looked up)
chain: MYGKEELLQVVEAMKTLLLKERQEKLQLEMHLRDEICNEMVEQMQQREQWCSEHLDTQKELLEEMYEEKLNILKESLTSFYQEEIQERDEKIEELEALLQEARQQSVAHQQS
notes: source: E. coli BL21-CodonPlus (DE3)-RIL, purified (Glutathione Sepharose, SEC); not shown: His6, N-terminal, cleaved; GST, N-terminal, cleaved

How the values were obtained:
[1] = molecular target: T1, MKLP2^557-668:CPI80 (survivin, INCENP^1-80, borealin^10-109) (human, UniProt O95235 557-668; O15392 1-142; Q9NQS7 1-80; Q53HL2 10-109); experiment: ITC; 400 µM peptide injected into 50 µM protein; 100 mM NaCl, 20 mM Tris-HCl pH 7.2, 1 mM DTT; 25°C; 1:1 binding model; conditions: both partners purified
T1 construct: survivin, human; INCENP, human, residues 1-80; borealin, human, residues 10-109; also called MKLP2:CPI80; not shown: His6, N-terminal, cleaved; GST, N-terminal, cleaved; copies: 2 + 2 + 2 + 2

[2] = molecular target: T2, CPI80^RRKKRR (CPI80 with the INCENP RRKKRR-motif replaced with alanine residues) (human, UniProt O15392 1-142; Q9NQS7 1-80; Q53HL2 10-109, RRKKRR to hexa-alanine); experiment: as above; conditions: both partners purified
T2 construct: survivin, human; INCENP, human, residues 1-80 with RRKKRR to hexa-alanine; borealin, human, residues 10-109 as in CPI80; not restated for this mutant; also called CPI80^RRKKRR mutant; source: E. coli BL21-CodonPlus (DE3)-RIL, purified (Glutathione Sepharose, SEC); not shown: His6, N-terminal, cleaved; GST, N-terminal, cleaved; copies: + +

[3] = molecular target: T3, CPI80 (survivin, INCENP^1-80, borealin^10-109) (human, UniProt O15392 1-142; Q9NQS7 1-80; Q53HL2 10-109); experiment: as above; conditions: both partners purified
T3 construct: survivin, human; INCENP, human, residues 1-80; borealin, human, residues 10-109; 1:1:1 trimer by SEC-MALS; also called WT CPI80; source: E. coli BL21-CodonPlus (DE3)-RIL, purified (Glutathione Sepharose, SEC); not shown: His6, N-terminal, cleaved; GST, N-terminal, cleaved; copies: 1 + 1 + 1

[4] = molecular target: CPI58 as used in ITC, SEC and ATPase assays (survivin, borealin, INCENP 1–58) (human, UniProt O15392 1-142; Q9NQS7 1-58; Q53HL2 1-280, Structural Zn2+ on survivin C57/C60/H77/C84. Survivin is taken from the authors' construct entity (entity number = survivin number + 2; leading GP tag scar left out). Borealin 10-109 is inferred from); experiment: as above; conditions: both partners purified
[5] = molecular target: CPI58 as used in ITC, SEC and ATPase assays (survivin, borealin, INCENP 1–58) (human, UniProt O15392 1-142; Q9NQS7 1-58; Q53HL2 1-280); experiment: as above; conditions: both partners purified
[6] = molecular target: T4, survivin (full-length, recombinant, as subunit of the CPI complexes) (human, UniProt O15392 1-142); experiment: SEC-MALS; samples at 1 mg/ml on Superose 6 10/300 GL, room temperature; 100 mM NaCl, 20 mM Tris-HCl pH 8.0, 1 mM DTT, 10% glycerol; conditions: both partners purified
T4 construct: survivin, human, full length; Never handled alone; stands for the subunit in the rows of two; source: E. coli BL21-CodonPlus (DE3)-RIL, co-expressed with borealin (pETDuet-1), purified within the complex

borealin^10-109 = molecular target: B3; experiment: as above; conditions: both partners purified
[7] = molecular target: the molecule itself; experiment: SEC; 1 mg lysate of nocodazole-arrested HeLa cells on Superose 6 10/300 at 4°C; fractions Western blotted for MKLP2 and GFP; size from calibration standards
[8] = molecular target: T5, CPI80^(Survivin E65A-H80A) (human, UniProt O15392 1-142; Q9NQS7 1-80; Q53HL2 10-109, E65A | H80A); experiment: SEC; CPC variants and MKLP2^557-668 mixed 1:1, 30 min on ice in 100 mM NaCl, 20 mM Tris-HCl pH 8.0, 1 mM DTT, 10% glycerol; analytical Superdex 200 increase 10/300 at 4°C; fractions on stained gels; conditions: both partners purified
T5 construct: survivin, human, E65A H80A; INCENP, human, residues 1-80; borealin, human, residues 10-109 as in CPI80; not restated for this mutant; also called CPI80^E65A-H80A; survivin^E65A-H80A CPI80; source: E. coli BL21-CodonPlus (DE3)-RIL, purified (Glutathione Sepharose, SEC); not shown: His6, N-terminal, cleaved; GST, N-terminal, cleaved; copies: + +

[9] = molecular target: the molecule itself; experiment: SEC-MALS; samples at 1 mg/ml on Superose 6 10/300 GL, room temperature; 100 mM NaCl, 20 mM Tris-HCl pH 8.0, 1 mM DTT, 10% glycerol

T3 sequence (O15392 whole entry, chain 1 of 3, one chain of several, the tested form may be a part): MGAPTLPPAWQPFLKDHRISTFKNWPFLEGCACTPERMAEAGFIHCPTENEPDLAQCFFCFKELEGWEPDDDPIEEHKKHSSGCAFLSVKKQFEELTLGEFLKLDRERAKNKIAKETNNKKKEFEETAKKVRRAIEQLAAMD
T2 sequence (O15392 whole entry, change not shown, chain 1 of 3, one chain of several, the tested form may be a part): as the sequence (O15392 whole entry, chain 1 of 3, one chain of several, the tested form may be a part) above
T2 sequence (Q9NQS7 other isoform, or with tags, fused parts or gaps RRKKRR to hexa-alanine | RRKKRR to hexa-alanine, chain 2 of 3, one chain of several): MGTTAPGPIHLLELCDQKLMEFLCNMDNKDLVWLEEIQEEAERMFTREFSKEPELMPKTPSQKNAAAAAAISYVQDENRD
T4 sequence (O15392 whole entry, one chain of several): as the sequence (O15392 whole entry, chain 1 of 3, one chain of several, the tested form may be a part) above
T5 sequence (O15392 whole entry E65A/H80A, the tested form may be a part, one chain of several): as the sequence (O15392 whole entry, chain 1 of 3, one chain of several, the tested form may be a part) above, with E65A, H80A counted along it
Sequence of CPI58 as used in ITC, SEC and ATPase assays (survivin, borealin, INCENP 1–58) (human, UniProt O15392 1-142; Q9NQS7 1-58; Q53HL2 1-280, Structural Zn2+ on survivin C57/C60/H77/C84. Survivin is taken from the authors' construct entity (entity number = survivin number + 2; leading GP tag scar left out). Borealin 10-109 is inferred from) (A2SUH6 whole entry, chain 1 of 3, one chain of several): as the sequence (O15392 whole entry, chain 1 of 3, one chain of several, the tested form may be a part) above

Binder | Kd [1] | Kd [2] | Kd [3] | stoichiometry N [6] | also measured
B1 | 2800 ± 300 nM | 3300 ± 500 nM | 4600 nM |  | Kd [4]: 5600 nM
B2 | < 1000 nM | 600 ± 300 nM | 1100 nM |  | Kd [5]: 800 nM
B3 |  |  |  | 1 | 
B4 |  |  |  | 1 | stoichiometry N (borealin^10-109): 1
B5 |  |  |  |  | stoichiometry N [7]: 2
B6 |  |  |  |  | binding result [8]: binds; stoichiometry N [9]: 2

From article PMC7337490, “Molecular basis of MKLP2-dependent Aurora B transport from chromatin to the anaphase central spindle” (The Journal of Cell Biology, 2020)
